Results on two molecules are retold here after publication PMC3726526, “Structural and Functional Characterization of the Recombinant Death Domain from Death-Associated Protein Kinase” (PLoS ONE, 2013).

In the assay the target is T1, GST-ERK2 (extracellular-regulated kinase-2) (human, UniProt P28482 1-360).
T1 construct: full length human ERK2 in pGEX-6-P3, N-terminal GST with a PreScission protease site; The methods and results of the ITC say 'ERK2'; the discussion says that the ITC and CD were done with GST-ERK2; source: E. coli BL21 codon plus; in cell lysate, held on glutathione beads (pull-down); large scale production as previously described [25]; (ITC); not shown: GST, N-terminal, kept
T1 sequence (P28482 whole entry): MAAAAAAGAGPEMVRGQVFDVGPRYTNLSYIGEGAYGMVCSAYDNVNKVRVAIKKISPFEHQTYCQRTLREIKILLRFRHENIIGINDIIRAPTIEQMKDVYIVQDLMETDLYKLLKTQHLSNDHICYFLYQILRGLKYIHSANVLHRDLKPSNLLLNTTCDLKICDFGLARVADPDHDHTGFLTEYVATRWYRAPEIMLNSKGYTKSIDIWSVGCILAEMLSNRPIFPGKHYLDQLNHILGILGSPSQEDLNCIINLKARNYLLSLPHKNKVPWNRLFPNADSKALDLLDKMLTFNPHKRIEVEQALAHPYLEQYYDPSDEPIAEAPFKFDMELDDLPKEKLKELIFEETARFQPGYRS
The assay is described as follows: ITC; VP-ITC, 25 C; 19 injections of 15 ul of 159 uM GB1-DAPk-DD(L) or 250 uM GB1-DAPk-DD(S) into 1.45 ml of 8.85-18.6 uM ERK2; 50 mM HEPES pH 7.5, 50 mM NaCl, 1 mM TCEP, 1 mM EDTA. To be noted: both partners purified. A general note: Isothermal titration calorimetry measures the heat released or taken up as one component is titrated into another.

B1: GB1-DAPk-DD(S) (domain or fragment, human, UniProt P53355 1293-1399, looked up)
chain: QASLGMDIHASDLNLLTRRKLSRLLDPPDPLGKDWCLLAMNLGLPDLVAKYNTSNGAPKDFLPSPLHALLREWTTYPESTVGTLMSKLRELGRRDAADFLLKASSVF
notes: death domain region of human death-associated protein kinase (DAPk, DAPK1), residues 1293-1399; Cloned between BamHI and XhoI of plasmid GEV2; all experiments were done with the intact GB1 fusion (thrombin not used); Predicted monomer mass 19.6 kDa; By the primers the XhoI site should add Leu-Glu before the His6 tag (surmised); also called short GB1-DAPk-DD construct; full-length DAPk-DD (short …)
A word on the Kd: it is the free concentration of one partner at which half of the binding sites on the other are occupied at equilibrium, for simple one-to-one binding. As a reminder, the stoichiometry N is the number of molecules, sites or subunits per partner or assembly. Regarding B1, the Kd was determined as 1770 nM, the dH was -12.7 kcal/mol and the “stoichiometry N” value was determined as 0.97 ± 0.01.

B2: GB1-DAPk-DD(L) (domain or fragment, human, UniProt P53355 1293-1408, looked up)
chain: QASLGMDIHASDLNLLTRRKLSRLLDPPDPLGKDWCLLAMNLGLPDLVAKYNTSNGAPKDFLPSPLHALLREWTTYPESTVGTLMSKLRELGRRDAADFLLKASSVFKINLDGNGQ
notes: death domain region of human death-associated protein kinase (DAPk, DAPK1) with a nine-residue C-terminal extension from the Ser-rich tail, residues 1293-1408; Made by mutagenesis of a GEV vector holding residues 1293-1431; intact GB1 fusion in all experiments; Predicted monomer mass 20.6 kDa; also called long GB1-DAPk-DD construct; full-length DAPk-DD (long variant); source: E. coli BL21 codon …
Turning to B2, binding was put at a Kd of 920 nM, the dH is -9.18 kcal/mol and the “stoichiometry N” value was 1.03 ± 0.01.
